According to article PMC10131064 (The Journal of Biological Chemistry, 2023):

Legend:
Assay in all cases: SPR
[1] = target: T1, human MDGA1 WT soluble ectodomain (residues 22-920, lacking the GPI anchor region), (His)6-tagged (human, UniProt Q8NFP4-1 22-920)
T1 sequence: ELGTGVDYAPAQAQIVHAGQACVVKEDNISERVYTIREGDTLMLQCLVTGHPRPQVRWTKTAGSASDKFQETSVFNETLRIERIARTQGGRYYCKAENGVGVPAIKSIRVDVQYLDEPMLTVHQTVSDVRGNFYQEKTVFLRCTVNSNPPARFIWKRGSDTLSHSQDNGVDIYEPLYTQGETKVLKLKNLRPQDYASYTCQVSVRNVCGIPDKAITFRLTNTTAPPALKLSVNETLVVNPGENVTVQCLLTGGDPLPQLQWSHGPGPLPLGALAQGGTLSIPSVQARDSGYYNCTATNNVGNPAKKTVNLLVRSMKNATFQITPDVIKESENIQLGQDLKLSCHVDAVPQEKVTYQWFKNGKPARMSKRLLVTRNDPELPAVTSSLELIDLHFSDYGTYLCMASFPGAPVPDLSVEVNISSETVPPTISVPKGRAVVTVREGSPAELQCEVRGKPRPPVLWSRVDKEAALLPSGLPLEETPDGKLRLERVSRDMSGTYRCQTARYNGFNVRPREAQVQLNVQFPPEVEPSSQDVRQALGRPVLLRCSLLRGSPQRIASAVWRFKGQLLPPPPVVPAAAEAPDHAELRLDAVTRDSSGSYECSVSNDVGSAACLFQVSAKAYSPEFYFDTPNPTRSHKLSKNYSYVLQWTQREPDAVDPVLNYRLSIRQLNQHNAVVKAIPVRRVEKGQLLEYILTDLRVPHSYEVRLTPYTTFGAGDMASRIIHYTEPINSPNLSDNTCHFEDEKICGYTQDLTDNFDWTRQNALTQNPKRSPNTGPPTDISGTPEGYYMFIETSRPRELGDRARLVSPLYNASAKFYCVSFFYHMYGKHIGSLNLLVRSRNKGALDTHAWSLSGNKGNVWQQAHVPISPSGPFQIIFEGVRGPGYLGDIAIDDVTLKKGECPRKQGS

[2] = target: T2, human MDGA1 T135C/N313C soluble ectodomain, (His)6-tagged (human, UniProt Q8NFP4-1 22-920, T135C | N313C)
T2 sequence: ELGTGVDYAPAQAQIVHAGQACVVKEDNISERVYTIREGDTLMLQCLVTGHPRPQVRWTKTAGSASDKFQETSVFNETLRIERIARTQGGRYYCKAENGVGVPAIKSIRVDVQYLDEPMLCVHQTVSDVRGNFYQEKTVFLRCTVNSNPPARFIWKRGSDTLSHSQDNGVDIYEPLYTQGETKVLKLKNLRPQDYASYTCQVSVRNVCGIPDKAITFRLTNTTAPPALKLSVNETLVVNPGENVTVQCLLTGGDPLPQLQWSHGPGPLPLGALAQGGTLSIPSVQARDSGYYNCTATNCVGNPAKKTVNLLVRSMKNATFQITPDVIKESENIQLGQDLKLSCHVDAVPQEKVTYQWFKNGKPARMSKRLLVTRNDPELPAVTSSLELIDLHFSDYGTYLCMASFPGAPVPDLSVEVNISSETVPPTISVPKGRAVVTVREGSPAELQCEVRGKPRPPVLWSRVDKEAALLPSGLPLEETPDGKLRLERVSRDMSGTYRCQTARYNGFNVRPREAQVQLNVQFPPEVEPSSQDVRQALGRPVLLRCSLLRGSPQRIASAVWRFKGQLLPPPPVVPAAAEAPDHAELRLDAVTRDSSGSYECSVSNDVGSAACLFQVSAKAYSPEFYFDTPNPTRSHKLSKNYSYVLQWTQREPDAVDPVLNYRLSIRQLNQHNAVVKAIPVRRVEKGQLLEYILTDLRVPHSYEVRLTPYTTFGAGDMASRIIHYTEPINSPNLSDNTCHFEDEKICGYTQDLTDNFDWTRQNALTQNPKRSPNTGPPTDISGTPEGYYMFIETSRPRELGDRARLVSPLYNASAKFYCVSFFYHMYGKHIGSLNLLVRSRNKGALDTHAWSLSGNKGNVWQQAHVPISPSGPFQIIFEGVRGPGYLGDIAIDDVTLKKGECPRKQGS

[3] = target: T3, human MDGA1 V314D soluble ectodomain, (His)6-tagged (human, UniProt Q8NFP4-1 22-920, V314D)
T3 sequence: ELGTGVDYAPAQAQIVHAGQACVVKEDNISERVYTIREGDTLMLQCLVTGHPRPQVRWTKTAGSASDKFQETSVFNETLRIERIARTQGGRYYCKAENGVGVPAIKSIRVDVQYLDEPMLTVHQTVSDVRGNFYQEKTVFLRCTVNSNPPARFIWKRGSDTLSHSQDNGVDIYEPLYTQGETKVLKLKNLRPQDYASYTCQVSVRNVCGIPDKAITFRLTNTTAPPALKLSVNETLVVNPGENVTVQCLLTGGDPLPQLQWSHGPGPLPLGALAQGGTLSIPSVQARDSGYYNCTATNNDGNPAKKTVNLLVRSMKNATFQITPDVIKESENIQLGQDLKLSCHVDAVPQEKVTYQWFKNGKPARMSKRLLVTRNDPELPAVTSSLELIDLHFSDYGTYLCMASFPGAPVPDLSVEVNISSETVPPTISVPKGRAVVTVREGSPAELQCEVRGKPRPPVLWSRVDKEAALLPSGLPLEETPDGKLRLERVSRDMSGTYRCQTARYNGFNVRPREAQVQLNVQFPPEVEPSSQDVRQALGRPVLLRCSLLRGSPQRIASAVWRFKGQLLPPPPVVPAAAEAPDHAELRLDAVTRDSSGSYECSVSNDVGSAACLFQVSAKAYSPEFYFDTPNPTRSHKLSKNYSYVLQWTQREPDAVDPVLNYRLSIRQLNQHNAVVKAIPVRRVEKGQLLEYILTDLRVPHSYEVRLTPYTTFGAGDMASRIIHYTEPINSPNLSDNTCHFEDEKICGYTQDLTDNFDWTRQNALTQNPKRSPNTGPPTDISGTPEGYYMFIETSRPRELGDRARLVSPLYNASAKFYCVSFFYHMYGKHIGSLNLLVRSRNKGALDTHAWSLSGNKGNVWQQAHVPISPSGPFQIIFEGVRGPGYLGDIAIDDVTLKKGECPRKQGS

[4] = target: T4, human MDGA1 I336D soluble ectodomain, (His)6-tagged (human, UniProt Q8NFP4-1 22-920, I336D)
T4 sequence: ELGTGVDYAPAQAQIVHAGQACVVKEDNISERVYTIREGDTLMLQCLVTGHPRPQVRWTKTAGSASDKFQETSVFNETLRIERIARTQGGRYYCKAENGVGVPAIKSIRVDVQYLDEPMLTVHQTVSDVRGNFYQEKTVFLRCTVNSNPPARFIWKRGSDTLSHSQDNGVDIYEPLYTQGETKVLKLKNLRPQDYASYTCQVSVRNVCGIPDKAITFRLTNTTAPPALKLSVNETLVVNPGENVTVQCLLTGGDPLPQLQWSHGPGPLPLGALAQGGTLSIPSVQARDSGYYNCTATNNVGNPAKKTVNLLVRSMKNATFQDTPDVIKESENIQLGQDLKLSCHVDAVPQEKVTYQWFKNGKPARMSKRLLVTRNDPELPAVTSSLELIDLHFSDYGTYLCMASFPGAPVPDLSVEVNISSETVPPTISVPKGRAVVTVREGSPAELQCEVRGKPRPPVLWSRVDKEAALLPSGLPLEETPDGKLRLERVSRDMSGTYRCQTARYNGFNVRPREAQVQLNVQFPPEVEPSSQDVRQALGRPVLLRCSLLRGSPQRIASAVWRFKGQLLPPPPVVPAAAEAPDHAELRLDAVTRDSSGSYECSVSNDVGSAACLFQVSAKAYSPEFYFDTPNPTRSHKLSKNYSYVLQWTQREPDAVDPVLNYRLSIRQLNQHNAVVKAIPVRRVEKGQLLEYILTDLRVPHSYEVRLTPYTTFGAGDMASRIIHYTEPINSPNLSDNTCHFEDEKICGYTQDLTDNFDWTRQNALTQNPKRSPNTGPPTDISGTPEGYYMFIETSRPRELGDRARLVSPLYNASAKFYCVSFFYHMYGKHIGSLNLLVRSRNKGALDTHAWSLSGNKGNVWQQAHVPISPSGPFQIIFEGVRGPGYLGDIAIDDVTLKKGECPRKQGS

Kd [1]: 3.4 nM
binding result [2]: binds
binding result [3]: binds
binding result [4]: binds
B1: extracellular domain of rat NLGN2 (residues V43-H612) with splice insert A (domain or fragment, UniProt Q62888-1 43-612, looked up)
chain: VVNTAYGRVRGVRRELNNEILGPVVQFLGVPYATPPLGARRFQPPEAPASWPGVRNATTLPPACPQNLHGALPAIMLPVWFTDNLEAAATYVQNQSEDCLYLNLYVPTEDGPLTKKRDEATLNPPDTDIRDSGKKPVMLFLHGGSYMEGTGNMFDGSVLAAYGNVIVATLNYRLGVLGFLSTGDQAAKGNYGLLDQIQALRWLSENIAHFGGDPERITIFGSGAGASCVNLLILSHHSEGLFQKAIAQSGTAISSWSVNYQPLKYTRLLAAKVGCDREDSTEAVECLRRKSSRELVDQDVQPARYHIAFGPVVDGDVVPDDPEILMQQGEFLNYDMLIGVNQGEGLKFVEDSAESEDGVSASAFDFTVSNFVDNLYGYPEGKDVLRETIKFMYTDWADRDNGEMRRKTLLALFTDHQWVAPAVATAKLHADYQSPVYFYTFYHHCQAEGRPEWADAAHGDELPYVFGVPMVGATDLFPCNFSKNDVMLSAVVMTYWTNFAKTGDPNQPVPQDTKFIHTKPNRFEEVVWSKFNSKEKQYLHIGLKPRVRDNYRANKVAFWLELVPHLHNLH
